From the supplement of paper PMC9170038

Tested on: MS2 coat protein
Assay: apparent KD of MS2 coat protein; designed switch direction (-1 OFF switch, 1 ON switch): -1; higher = weaker reporter binding
Method in brief: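 Designed RNA switches sharing common flanks were transcribed on Illumina chips by stalled E. coli RNA polymerase. They were titrated with SNAP-549-labelled MS2 coat protein, from 0.7 or 1.5 nM doubling to 3 µM, in Tris-HCl pH 7.5 buffer with KCl, MgCl2, BSA, DTT, tRNA and Tween-20. Titrations ran without input, with 200 uM small-molecule ligand, or with an oligonucleotide input. The apparent KD of each design is the median over its clusters, after curve-fitting of normalised cluster fluorescence.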

[1] = input ligand: microRNA oligo, concentration not stated
[2] = Eterna round: R95, input ligand: FMN 200 uM
[3] = Eterna round: R95, input ligand: microRNA oligo, concentration not stated
[4] = Eterna round: R95, input ligand: none

Row | Sequence | apparent KD of MS2 coat protein (input ligand: FMN 200 uM) [nM] | apparent KD of MS2 coat protein (input ligand: none) [nM] | apparent KD of MS2 coat protein [1] [nM] | apparent KD of MS2 coat protein [2] [nM] | apparent KD of MS2 coat protein [3] [nM] | apparent KD of MS2 coat protein [4] [nM]
1 | GAACCGCGAGGAUAUACAGUCGAGUCCAUUACGUGUCUCGGACUUGAGGAUCACCCAAGUAGAAGGCGUCUCAG [salish99_ex2_r4_634] (Eterna round: R97, puzzle: Exclusion 2) | 96.3 | 188 | – | – | – | –
2 | GAACUGAAGCAUAGCUUUAGUCGUACAUGAGGAUCACCCAUGUAGGAUAUGGUAGGCAUAGCUUACUAGAAGGAUAGAGUGAUC [Mat - Exclusion NG 3 - Mod of JL - D73] (Eterna round: R96, puzzle: Exclusion NG 3) | 595 | 243 | 411 | – | – | –
3 | GAACUGAGGCAAAGCUUUAGUCGUACAUGAGGAUCACCCAUGUAGGAUAUGGUAGGCAAAGCUUACCAGAAGGACAGAGUGAUC [Mat - Exclusion NG 3 - Mod of JL - D60] (Eterna round: R96, puzzle: Exclusion NG 3) | 498 | 257 | 260 | – | – | –
4 | GAAGAAGAGAGAAUAGAAAACAUGAGGAUCACCCAUGUGAGAAGAUGAGGGUGUAAUAGGCUUUUGGCUCGUCUUAU (puzzle: Sensor v3, turn-off variant 1) | – | – | – | 37.9 | 89.7 | 47.2
5 | GAAGAGACAGGAUAUACAUGAGGAUCACCCAUGUGAGUAAGGUAGAGGCGGAGUAGAUGUAGAAGGGUCAAAGA [JR_Exclu3_Sub015] (puzzle: Exclusion 3) | – | – | – | 80.5 | 40.5 | 42.8
6 | GAAGAGGUAGGAUAUACGAAAAAAAAGGGUAGAAAAAAAACACAUGAGGAUCACCCAUGUAGAAGGACCAAAAG [salish99_ex2_r3_034] (puzzle: Exclusion 2) | – | – | – | 102 | 36 | 23.1
7 | GAAGCACAUGAGGAUCACCCAUGUAAGGAUAUACGUCUGGUCCGGCCGGACCAGUACCGUAGAAGGUACGUAAA [Excls-Ia] (puzzle: Exclusion 1) | – | – | – | – | 18.1 | –
8 | GAAGUAAAUGCAGGAUAUACCCACACAUGAGGAUCACCCAUGUAGUCUACUACGGUGUUCUCACGGUAGAAGGGCACAGCCGGA [Eternabot solution 31] (Eterna round: R96, puzzle: Exclusion NG 2) | 377 | 256 | 267 | – | – | –
9 | GAAUAACAAGCGAGAUCCUACAUGAGGAUCACCCAUGUGCUCGUCUUAUAAAGUACUAUCACGAAAGUGAUAGUACA [Mat - Sensor v3 - turn-off var 1 - Eli Mod - D62] (puzzle: Sensor v3, turn-off variant 1) | – | – | – | 16.2 | 200 | 17.5
10 | GAAUAGGCAGGAUAUACAUGAGGAUCACCCAUGUGCCGGCGAUAGGUACGAUCGAAAGGUAGAAGGGCCUAAAC [ChP 13.04.2015 #8] (puzzle: Exclusion 3) | – | – | – | 30.7 | 140 | 127
11 | GAAUAGUGAGGAUAUGCAAUGAAGGUAGUACGAUAUGUCUGACAUGAGGAUCACCCAUGUAGAAGGCACAGAUC [EX2 #12] (Eterna round: R97, puzzle: Exclusion 2) | 16.1 | 22 | – | – | – | –
12 | GAAUGAGAGCAGGAUAUCUUAUAAAUAUAUGAAAGAGAAGGGCUCACAUGAGGAUCACCCAUGUGGUCCUAGAU [jl-ex6-4.75 jandersonlee mod] (Eterna round: R97, puzzle: Exclusion 6) | 443 | 42.9 | – | – | – | –
13 | GACACGGAUGUCAGGAUAUGCAAAUGGCAUCGUUCGCAGAAGGGACAUGAGGAUCACCCAUGUAAAAGUGGACC [Onsorelama] (Eterna round: R97, puzzle: Brourd's mod of Exclusion 4) | 109 | 114 | – | – | – | –
14 | GACCCUGCCUAGGAUAUGCAUCUGUCAGUCAGGGCAGAAGGAGGCACAUGAGGAUCACCCAUGUGACCCGGCGU [EX6 C.3] (Eterna round: R97, puzzle: Exclusion 6) | 14.6 | 14.5 | – | – | – | –
15 | GACCUAUAGGUAGGAUAUCAUUGCGAUUAGCUAUGAGAAGGACCACAUGAGGAUCACCCAUGUCCUCCAAUUAACCGAAAGGUC [Fiskers ExNg1 - 3] (Eterna round: R96, puzzle: Exclusion NG 1) | 44.9 | 30.1 | 21.9 | – | – | –
16 | GACUGCCGAGGAUAUACAUGAGGAUCACCCAUGUGCUUCAGCAUCGAAAGAUGCAUGGGUAGAAGGCGGUAGUC [LRO-Excl3-11] (puzzle: Exclusion 3) | – | – | – | – | 25.4 | –
17 | GACUGGACAGGAUAUGUUCUUGAGCACUUGAGGAUCACCCAAGUCAUCAAGAACUCAGGCACAGAAGGGUUUAUGG [salish99_ex5_r4_010] (Eterna round: R97, puzzle: Exclusion 5) | 23.3 | 12.1 | – | – | – | –
